Measurements published in patent US9429584B2, “Antibody against insoluble fibrin” (National Cancer Center, priority 2013, dated 2016).
Values belong to the molecule of their own block, whether it stands above or below them.

Target: T1, insoluble fibrin (Homo sapiens, UniProt P02675+P02679)
T1 sequence (P02675 45-491 limits assumed): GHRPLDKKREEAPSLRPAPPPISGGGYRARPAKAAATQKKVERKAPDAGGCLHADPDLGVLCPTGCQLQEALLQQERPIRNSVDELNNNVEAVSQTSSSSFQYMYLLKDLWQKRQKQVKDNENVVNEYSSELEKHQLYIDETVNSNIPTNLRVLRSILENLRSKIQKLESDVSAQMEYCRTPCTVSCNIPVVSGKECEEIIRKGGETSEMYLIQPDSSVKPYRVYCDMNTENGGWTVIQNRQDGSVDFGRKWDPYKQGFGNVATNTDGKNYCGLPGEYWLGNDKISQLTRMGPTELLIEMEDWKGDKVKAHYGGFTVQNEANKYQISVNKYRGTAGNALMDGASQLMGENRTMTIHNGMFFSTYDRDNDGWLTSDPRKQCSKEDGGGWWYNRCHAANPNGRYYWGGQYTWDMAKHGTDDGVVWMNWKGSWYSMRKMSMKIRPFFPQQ
T1 sequence (P02679 27-453): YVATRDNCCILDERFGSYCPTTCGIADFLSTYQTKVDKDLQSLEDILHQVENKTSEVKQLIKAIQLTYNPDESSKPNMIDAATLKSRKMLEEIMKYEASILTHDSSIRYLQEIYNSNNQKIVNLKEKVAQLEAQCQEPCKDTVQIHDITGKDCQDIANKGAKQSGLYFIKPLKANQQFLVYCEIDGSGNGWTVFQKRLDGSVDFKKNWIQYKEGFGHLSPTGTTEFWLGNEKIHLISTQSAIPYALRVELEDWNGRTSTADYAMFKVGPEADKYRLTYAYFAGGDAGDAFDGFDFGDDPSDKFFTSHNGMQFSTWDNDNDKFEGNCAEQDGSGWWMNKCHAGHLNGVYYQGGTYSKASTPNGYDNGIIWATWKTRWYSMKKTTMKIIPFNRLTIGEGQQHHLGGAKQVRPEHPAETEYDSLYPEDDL
Assay: ELISA method of Example 2, fibrin plate
Type: binding
Conditions: antibody 10 μg/mL
Procedure: Each of the antibody solutions (100 μL each) at 10 μg/mL was added to the fibrin plate and the fibrinogen plate, and allowed to stand at room temperature for 1 hour. After washing with TBS-T, Bethyl Anti-Human IgG-HRP (×1000 dilution) or Bethyl Anti-Mouse IgG-HRP (×10000 dilution) was added as a secondary antibody. Then, after washing with TBS-T, colorimetry was conducted with OPD for 10 minutes, and measurement was conducted at an absorption wavelength of 492 nm.

affinity for insoluble fibrin (absorbance at 492 nm) relative to that of the 102-10 antibody: 12 times
B1: Fib-0355 antibody: monoclonal anti-β chain antibody produced by hybridoma Fib-0355; L chain variable region SEQ ID NO: 11, H chain variable region SEQ ID NO: 15 (antibody, listed as Mus musculus, V domains shown)
VH: GPELKKPGETVKISCKASGYTFTNYGMNWVKQAPGKGLKWMGWINTNTGEPTYAEEFKGRFAFSLETSASTAYLQINNLKNEDTATYFCARLLDYWGQGTTLTVSS
VL: PSSLAVSAGEKVTMSCKSSQSVLYSSNQKNYLAWYQQKPGQSPKLLIYWASTRESGVPDRFTGSGSGTDFTLTISSVQAEDLAVYYCQQYLSSYTFGG
modifications: SITE (1)..(106) Variable Region of Heavy Chain (Fib-0355); SITE (1)..(98) Variable Region of Light Chain(Fib-0355)

affinity for insoluble fibrin (absorbance at 492 nm) relative to that of the 102-10 antibody: 16 times
ratio of the affinity for insoluble fibrin to the affinity for fibrinogen (absorbance at 492 nm): 25 times
B2: 34-105 antibody: monoclonal anti-γ chain antibody produced by hybridoma 34-105; L chain variable region SEQ ID NO: 3, H chain variable region SEQ ID NO: 7 (antibody, listed as Mus musculus, V domains shown)
VH: EVKLQESGGGLVKPGGSLKLSCAASGFTFSSYAMSWVRQTPEKRLEWVAAISSGGTTYYPDSVKGRFTISRDNARNILYLQMSSLRSEDTAMYYCVRGGTIGAYWGQGTLVTVSA
VL: DIVITQSPASLAVSLGQRATISYRASKSVSTSGYSYMHWNQQKPGQPPRLLIYLVSNLESGVPARFSGSGSGTDFTLNIHPVEEEDAATYYCQHIRELTRSEGGPSWK
modifications: SITE (1)..(115) Variable Region of Heavy Chain (34-105); SITE (1)..(108) Variable Region of Light Chain(34-105)
